Results as given in US20030078191A1 (published 2003).

Columns and labels:
[1] = target: T1, B42-FtsZ fusion (pB42-FtsZ, SHp256) (Escherichia coli, UniProt P0A9A6 1-383); assay: yeast two-hybrid (LexA fusion x B42 fusion), growth on plates without histidine
T1 construct: Yeast two-hybrid prey; entire FtsZ gene cloned into pB42
T1 sequence: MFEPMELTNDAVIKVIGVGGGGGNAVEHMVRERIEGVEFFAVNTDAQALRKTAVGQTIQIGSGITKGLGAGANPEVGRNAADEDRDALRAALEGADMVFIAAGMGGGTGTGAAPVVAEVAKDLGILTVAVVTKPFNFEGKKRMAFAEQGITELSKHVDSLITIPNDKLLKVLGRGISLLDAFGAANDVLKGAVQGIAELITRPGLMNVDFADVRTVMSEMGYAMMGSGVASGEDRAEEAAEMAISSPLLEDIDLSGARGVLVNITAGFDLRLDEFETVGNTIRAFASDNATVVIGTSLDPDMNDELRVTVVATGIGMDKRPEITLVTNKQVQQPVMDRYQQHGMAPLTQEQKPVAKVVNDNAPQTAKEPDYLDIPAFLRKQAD

[2] = target: Gal4ad-ZipA(185-302) fusion (pGAD424 fusion) (Escherichia coli); assay: cell-based or functional assay
[3] = target: Gal4ad-ZipA(35-185) fusion (pGAD424 fusion) (Escherichia coli); assay: cell-based or functional assay
[4] = target: Gal4ad-ZipA(35-284) fusion (pGAD424 fusion) (Escherichia coli); assay: cell-based or functional assay
[5] = target: T2, Gal4 activation domain alone (pGAD424 vector, no fusion) (UniProt P04386 768-881); assay: cell-based or functional assay
T2 sequence (looked up): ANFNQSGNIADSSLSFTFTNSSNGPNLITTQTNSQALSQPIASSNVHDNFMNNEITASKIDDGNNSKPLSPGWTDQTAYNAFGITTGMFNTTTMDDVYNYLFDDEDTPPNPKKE

[6] = target: Gal4ad-ZipA(62-328) fusion (pGAD424 fusion) (Escherichia coli); assay: cell-based or functional assay
[7] = target: Gal4ad-ZipA(185-328) fusion (pGAD424 fusion) (Escherichia coli, UniProt P77173 185-328); assay: cell-based or functional assay
[8] = target: T1, B42-FtsZ fusion (pB42-FtsZ, SHp256); assay: yeast two-hybrid (LexA/B42), LEU2 and lacZ reporters, haploids and diploids
Gal4ad-FtsA fusion = target: T3, Gal4ad-FtsA fusion (UniProt P0ABH0 1-420); assay: yeast two-hybrid, Gal4 system
T3 sequence: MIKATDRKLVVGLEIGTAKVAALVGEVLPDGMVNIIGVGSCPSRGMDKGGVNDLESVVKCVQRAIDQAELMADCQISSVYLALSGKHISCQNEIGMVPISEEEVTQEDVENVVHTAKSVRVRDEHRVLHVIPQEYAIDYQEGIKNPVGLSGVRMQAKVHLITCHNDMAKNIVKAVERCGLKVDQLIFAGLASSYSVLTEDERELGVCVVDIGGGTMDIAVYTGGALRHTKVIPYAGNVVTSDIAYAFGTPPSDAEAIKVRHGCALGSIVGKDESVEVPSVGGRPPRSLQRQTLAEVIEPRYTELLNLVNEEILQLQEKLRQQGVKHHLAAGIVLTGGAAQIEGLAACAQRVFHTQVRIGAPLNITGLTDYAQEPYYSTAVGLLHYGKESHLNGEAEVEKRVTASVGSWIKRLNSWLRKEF

B1: LexA-OrfE fusion (kil as a fusion to the LexA DNA-binding protein) (other)
chain: MKALTARQQEVFDLIRDHISQTGMPPTRAEIAQRLGFRSPNAAEEHLKALARKGVIEIVSGASRGIRLLQEEEEGLPLVGRVAAGEPLLAQQHIEGHYQVDPSLFKPNADFLLRVSGMSMKDIGIMDGDLLAVHKTQDVRNGQVVVARIDDEVTVKRLKKQGNKVELLPENSEFKPIVVDLRQQSFTIEGLAVGVIRNGDWLMIAHHFGTDEIPRQCVTPGDYVLHEGRTYIASANNIKKRKLYIRNLTTKTFITDRMIKVFLGRDGLPVKAESW
- binding result [1]: no binding

B2: Gal4bd-FtsZ(311-383) fusion (pAS2-1-FtsZ(311-383), SHp102) (other)
chain: MKLLSSIEQACDICRLKKLKCSKEKPKCAKCLKNNWECRYSPKTKRSPLTRAHLTEVESRLERLEQLFLLIFPREDLDMILKMDSLQDIKALLTGLFVQDNVNKDAVTDRLASVETDMPLTLRQHRISATSSSEESSNKGQRQLTVSVATGIGMDKRPEITLVTNKQVQQPVMDRYQQHGMAPLTQEQKPVAKVVNDNAPQTAKEPDYLDIPAFLRKQAD
- beta-galactosidase (lacZ reporter) activity, MUG fluorescence, yeast two-hybrid [2]: 828 units
- beta-galactosidase (lacZ reporter) activity, MUG fluorescence, yeast two-hybrid [3]: 971 units
- beta-galactosidase (lacZ reporter) activity, MUG fluorescence, yeast two-hybrid [4]: 8620 units
- beta-galactosidase (lacZ reporter) activity, MUG fluorescence, yeast two-hybrid [5]: 997 units
- beta-galactosidase (lacZ reporter) activity, MUG fluorescence, yeast two-hybrid [6]: 7430 units
- beta-galactosidase (lacZ reporter) activity, MUG fluorescence, yeast two-hybrid [7]: 2630 units

B3: LexA alone (pLexA vector, SHp40) (other)
chain: MKALTARQQEVFDLIRDHISQTGMPPTRAEIAQRLGFRSPNAAEEHLKALARKGVIEIVSGASRGIRLLQEEEEGLPLVGRVAAGEPLLAQQHIEGHYQVDPSLFKPNADFLLRVSGMSMKDIGIMDGDLLAVHKTQDVRNGQVVVARIDDEVTVKRLKKQGNKVELLPENSEFKPIVVDLRQQSFTIEGLAVGVIRNGDWL
- binding result [8]: no binding

B4: Gal4bd-OrfE fusion (pAS2-1 fusion of kil) (other)
chain: MKLLSSIEQACDICRLKKLKCSKEKPKCAKCLKNNWECRYSPKTKRSPLTRAHLTEVESRLERLEQLFLLIFPREDLDMILKMDSLQDIKALLTGLFVQDNVNKDAVTDRLASVETDMPLTLRQHRISATSSSEESSNKGQRQLTVSMIAHHFGTDEIPRQCVTPGDYVLHEGRTYIASANNIKKRKLYIRNLTTKTFITDRMIKVFLGRDGLPVKAESW
notes: also called Gal4bd-Kil
- beta-galactosidase (lacZ reporter) activity, MUG fluorescence, yeast two-hybrid [2]: 721 units
- beta-galactosidase (lacZ reporter) activity, MUG fluorescence, yeast two-hybrid [3]: 1140 units
- beta-galactosidase (lacZ reporter) activity, MUG fluorescence, yeast two-hybrid [4]: 7580 units
- beta-galactosidase (lacZ reporter) activity, MUG fluorescence, yeast two-hybrid [5]: 1230 units
- beta-galactosidase (lacZ reporter) activity, MUG fluorescence, yeast two-hybrid [6]: 8530 units
- beta-galactosidase (lacZ reporter) activity, MUG fluorescence, yeast two-hybrid [7]: 1910 units
- binding result (Gal4ad-FtsA fusion): no binding
